From the nanobody polyreactivity screen of Harvey et al. (2022)

Experiment: yeast display, Sf9 membrane polyspecificity reagent, FACS + sequencing; frameworks hold sequencing errors
In short: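 Synthetic nanobody libraries on Saccharomyces cerevisiae BJ5465 were galactose-induced for 36–48 hours, stained 1 hour at 4 °C with 10% biotinylated, detergent-solubilized Sf9 membrane reagent and enriched on streptavidin microbeads. FACS then separated cells into low and high (top ~1%) gates by anti-HA (expression) and streptavidin (reagent binding) fluorescence. Genes were colony-PCR amplified, MiSeq 2 × 250 sequenced and CDR-length filtered. A clone's polyreactivity label is that of its gate of origin.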

Row | Sequence | polyreactivity (PSR sort gate)
1 | QVQLVESGGGLVQAGGSLRLSCAASGNTLHVYAMGWYRQAPGKERELVARITGGGRTYYADSVKGRFTISRDNAKNTVYLQMNSLKTEDTAVYYCATDYYGHKVLYDYWGQGTQVTVSS | low polyreactivity
2 | QVQLVESGGGLVQAGGSLRLSCAASGNTLRVYALGWYRQAPGKERELVAAISYSSVNTYYADSVKGRFTISRDNAKNTVYLQMNSLKPEDTAVYYCAADYYYYRRTQYDLRGYPYYYWGQGTQVTVSS | low polyreactivity
3 | QVQLVESGGGLVQAGGSLRLSCAASGNTLTYNVMGWYRQAPGKDWDLVAAISGRGGRTYYADSVKGRFTISRDNAKNTVYLQMNSLKPEDTAVYYCAATSRNGESGGFYYWGQGTQVTVSS | high polyreactivity
4 | QVQLVESGGGLVQAGGSLRLSCAASGNTLWRNAMGWYRQAPGKERELVATISSVGTYYADSVKGRFTISRDNAKNSVYFQMNSLKPEDTAVYYCAARIWAFYSRRYFWGQGTQVTVSS | high polyreactivity
5 | QVQLVESGGGLVQAGGSLRLSCAASGNTSVPYAMGWYRQAPGKERELVARITWSTGRTYYADSVKGRFTISRDNAKNTVYLQMNSLKPVDTAVYYCATEAWLPGSGGDYWGQVTQVTVSS | low polyreactivity
6 | QVQLVESGGGLVQAGGSLRLSCAASGNTYIRNVMGCYRQAPGKERELVAGIRTGGSTFYADSVKGRFTISRDNAKNPVYLQMNSLKPEDTAVYYCAGYQLRLVYGYGYWGQGTQVTVSS | low polyreactivity
7 | QVQLVESGGGLVQAGGSLRLSCAASGPIFAYNAMGWYRQAPGKERELVAAISYSGGSTYYADSVKGRFTISRDNAKNTVYLQMNSLKPEDTAVYYCNAVYRYRTYRYDYWGQGTQVTVSS | high polyreactivity
8 | QVQLVESGGGLVQAGGSLRLSCAASGPIFAYNAMGWYRQATGKERELVAAISYSGGSTYYPDSVKGRFTISRDNEKNSVYLQMNSLKPEDTAVYYCNAVYRYRTYRYDYWGQGTQVTVSS | high polyreactivity
9 | QVQLVESGGGLVQAGGSLRLSCAASGPISAIYDMGWDRQAPGKERELVASISGGTSTYYADSVKGRFTISRDNAKNTVYLQMNSLKPEDTAVYYCNAEASSYHGVEDEYDYWGQGTQVTVSS | low polyreactivity
10 | QVQLVESGGGLVQAGGSLRLSCAASGPTFGVYAKGWDRQAPGKEREFVAAISSTGGSTYYADSVKGRFTISRDNAKNTVYLQMNSLKPEDTAVYYCAARLHTYGYSYGYWGQGTQVTVSS | high polyreactivity
11 | QVQLVESGGGLVQAGGSLRLSCAASGPTFYKYAMGWYRQAPGKERELVATITRRGGSTYYADSVKGRFTISRDNAKNTVYLQMNSLKPEDTAVYYCAKEIFLKGPDGHDYWGQGTQVTVSS | low polyreactivity
12 | QVQLVESGGGLVQAGGSLRLSCAASGPTFYKYAMGWYRQAPGKERELVATITRRGGSTYYADSVKGRFTISRDNAKNTVYLQMNSLKPEDTAVYYCAKEIFQKGPDGHDYWGQGTQVTVSS | low polyreactivity
13 | QVQLVESGGGLVQAGGSLRLSCAASGPTLHAYTMGWYRQAPGKERELVAAITRGGGNTYYADSVKGRFTISRDNAKNTVYLQMNSLKPEDTAVYYCNADVSGYLWYEYDYWGQGTQVTVSS | low polyreactivity
14 | QVQLVESGGGLVQAGGSLRLSCAASGRICEVYAMGWYRQAPGKERELVAAINSGGSTRYADSVKGRFTISRDNAKNTVYLQMNSLKPEDTAVYYCNARPGYYRYLRGYNYWGQGTQVTVSS | low polyreactivity
15 | QVQLVESGGGLVQAGGSLRLSCAASGRICGSYAMGWYRQAPGKERELVAAISWRGTSTYYADSVKGRFTISRDNAKNTVYLQMNSLKPEDTAVYYCAAAVDAFTNKQYYYWGQGTLVTVSS | low polyreactivity
16 | QVQLVESGGGLVQAGGSLRLSCAASGRICGVYAMGWYRQAPGKERELVAAITARGGSTYYADSVKGRFTISRDNAKNTVYLQMNSLKPEVTAVYYCATRLYKRTRTITYGYWGQGTQVTVSS | high polyreactivity

Row | Sequence | polyreactivity (PSR sort gate)
17 | QVQLVESGGGLVQAGGSLRLSCAASGRICWGYAMGWSRQAPGKERELVARITSGGDTYYADSVKGRFTISRDNAKNTVYLQMNSLKPEDTAVYYCAKSPAVKPYAYRESGFIYDYWGQGTQVTVSS | low polyreactivity
18 | QVQLVESGGGLVQAGGSLRLSCAASGRIFAAYAMGWYRQAPGKERELVAGISRGGRTYYADSVKGRFTISRDNAKNTVYLQMNSLKPEDTAVYYCAKRATGQYSITAYGYDYWGQGTQVTVSS | low polyreactivity
19 | QVQLVESGGGLVQAGGSLRLSCAASGRIFAAYAMGWYRQAPGKERELVAGISRGGRTYYADSVKGRFTISRDNAKNTVYLQMNSLKPEDTAVYYCAKRATGQYSITTYGYDYWGQGTQVTVSS | low polyreactivity
20 | QVQLVESGGGLVQAGGSLRLSCAASGRIFADYAMGWYRQAPGKERELVAAIDWSDGSTKYADSVKGRFTISRDKAKNTVYLQMNSLKPEDTAVNYCAADYWPRDGLGWWYDYWGQGTQVTVSS | low polyreactivity
21 | QVQLVESGGGLVQAGGSLRLSCAASGRIFAFNAMGWYRQAPGKERELVADITSSGVNTYYADSVKGRFTISRDNAKNTVYLQMNSLKPEDTAVYYCAARSYLRWWVGMEYCGQGTQVTVSS | low polyreactivity
22 | QVQLVESGGGLVQAGGSLRLSCAASGRIFAFYAMGGYRQAPGKERELVAAITSGGSTKYADSVKGRFTISRDNAKNTVYLHMKSLKPEDTAVYYSAAQYRYQRYSDAMEYWGQGTQVTVSS | high polyreactivity
23 | QVQLVESGGGLVQAGGSLRLSCAASGRIFAGYAMGWDRQAPGKERELVATISSGGSTYYADSVKGRFTISRDNAKNTVYLQMNSLKPEDTAVYYCAAEYGTRQYSSYYKLFNYWGQGTQVTVSS | low polyreactivity
24 | QVQLVESGGGLVQAGGSLRLSCAASGRIFAGYAMGWYRQAPGKERELLATISSGGSTYFAHSVKGRFTISRDNAKNTVYLQMNSLKPEDTAVYYCSAEYGTRQYSCYYKLFNYWGQGTQVTVSS | low polyreactivity
25 | QVQLVESGGGLVQAGGSLRLSCAASGRIFAGYAMGWYRQAPGKERELVAAISDGGTTNYADSVKGRFTISRDNAKNTVYLQMNSLKPEDTAVYYCAKVAAESYRYGYWGQGTQVTVSS | low polyreactivity
26 | QVQLVESGGGLVQAGGSLRLSCAASGRIFAGYAMGWYRQAPGKERELVAGISNRGGSTYYADSVKGRFTISRDNAKKTVYLQMNRLKPEDTAVYYCAVRRRSLGGYWGQGTQVTVSS | high polyreactivity
27 | QVQLVESGGGLVQAGGSLRLSCAASGRIFAGYAMGWYRQAPGKERELVARISRGDDSTYYADSVKGRFTISRDNAKNTVYLQMNSLKPEDTAFYFCAADYPDVVYLEYDYWGQGTQVTVSS | low polyreactivity
28 | QVQLVESGGGLVQAGGSLRLSCAASGRIFAGYAMGWYRQAPGKERELVASIRSSGSTYYADSVKGRFTISRDNAKNTVYLQMNSLKPEDTAVYYCNAVPRRRRYSRLGYWGQGTQVTVSS | high polyreactivity
29 | QVQLVESGGGLVQAGGSLRLSCAASGRIFAGYAMGWYRQAPGKERELVATITYRGGNTYYADSVKGRFTISRDNAKNTVYLQMNSLKPEDTAVYYCAKGPYRYLYRAYPGGYWGQGTQVTVSS | high polyreactivity
30 | QVQLVESGGGLVQAGGSLRLSCAASGRIFAGYTMGWYRQAPGKERELVAAISGSGGRTYYADSVKGRFTISRDIAKNTVYLQMNSLKPEDTAVYYCAAYRSRTYGYWGQGTQVTVSS | high polyreactivity
31 | QVQLVESGGGLVQAGGSLRLSCAASGRIFAHNAMGWYRQAPGKERELVAAISSSDGSTYYADSVKGRFTISRDNAKNTVYLQMNSLKPEDTAVYYCAARGSPSKHHWYDYWGQGTQVTVSS | low polyreactivity
